Source: PMC4838387, “PolDIP2 interacts with human PrimPol and enhances its DNA polymerase activities”

Target: T1, PrimPol24-354 (AEP catalytic domain);PolDIP2 (untagged) (human;human?, UniProt Q96LW4;Q9Y2S7 24-354;1-368, |)
T1 sequence 1: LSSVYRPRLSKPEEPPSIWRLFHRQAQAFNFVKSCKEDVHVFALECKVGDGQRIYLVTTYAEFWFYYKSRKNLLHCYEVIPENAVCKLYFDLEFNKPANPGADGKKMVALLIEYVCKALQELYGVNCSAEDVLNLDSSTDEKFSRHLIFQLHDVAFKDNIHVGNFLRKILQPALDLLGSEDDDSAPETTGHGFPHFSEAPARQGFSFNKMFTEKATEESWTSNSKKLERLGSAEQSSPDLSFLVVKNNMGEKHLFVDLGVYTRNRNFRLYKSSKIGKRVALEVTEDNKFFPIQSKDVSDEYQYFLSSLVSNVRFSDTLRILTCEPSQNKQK
T1 sequence 2: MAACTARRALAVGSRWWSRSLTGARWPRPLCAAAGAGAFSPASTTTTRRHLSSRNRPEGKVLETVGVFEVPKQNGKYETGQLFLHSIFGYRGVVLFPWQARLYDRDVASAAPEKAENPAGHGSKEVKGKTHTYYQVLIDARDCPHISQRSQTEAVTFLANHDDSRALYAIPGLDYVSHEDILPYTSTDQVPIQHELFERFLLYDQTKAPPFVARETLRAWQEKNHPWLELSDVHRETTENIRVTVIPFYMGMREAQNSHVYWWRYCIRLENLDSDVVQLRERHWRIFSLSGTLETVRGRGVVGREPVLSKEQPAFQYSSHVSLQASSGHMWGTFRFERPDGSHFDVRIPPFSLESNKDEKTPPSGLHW
Test: EMSA; PolDIP2 50-250 nM with PrimPol; more DNA bound than by PrimPol alone, super-shifted complex; 10 mM Mg2+; EMSA: 10 mM Bis-Tris-propane-HCl pH 7.0, 10 mM MgCl2, 100 uM DTT, 20 nM DNA; 5% native PAGE, 0.5x TBE; binding temperature not stated
Conditions: protein: recombinant;recombinant; tags: ;none (GST cleaved with PreScission protease); copies: 1;1; label: 5'-HEX on primer; 3'-biotin on template; 20 bp duplex; template 5' overhang 77 nt

B1: 20/97-mer primer/template (HP-20 / ND-97) (mixed)
DNA 1: TGTCGTCTGTTCGGTCGTTC
DNA 2: ACCGCGAACTTGAATTCTAGTTCAGTCTAAATGCTCTCAAGCACTGAGCAATTCACAACATATGGCTTTCGATTACCGAACGACCGAACAGACGACA
B1: binds.
